Assay results as given in publication PMC3141235.

Target: yAsf1 mutant V94R labeled with Alexa Fluor 532 (S. cerevisiae)
Assay: other fluorescence titration

Substance: X. laevis H3^C110A / H4^T71C labeled with the Qsy9 fluorescence quencher (complex)
- Kd: 0.29 µM
